The source of these data is patent publication US20040053355A1, “Modular approach to on-line synthesis, drug discovery and biochemical transformations using immobilized enzyme reactors” (priority 2000, published 2004).

Broadly, the Km is the substrate concentration at which the rate is half of its maximum. In general, Vmax refers to the rate approached at saturating substrate.

Substrate in series [1]: NCCc1ccc(O)cc1
Briefly: On-line DBH-Glut-P immobilized enzyme reactor (DBH-Glut-P IMER) HPLC system. The note with it: other: DBH-IMER (DBH-Glut-P IMER), 0.3 ml/min, contact time 10 min, 37° C. The series is classed as biochemical, bovine. The source says:
DBH immobilized on the IAM or Glut-P stationary phase was packed into a 1 cm×10 mm guard (Regis Technologies). The guard was placed in a holder and the resulting column connected to a chromatographic system. THE DBH-IAM-IMER and the DBH-Glut-P-IMER was washed with sodium acetate buffer [0.1M, pH 5.5] and sodium acetate buffer [0.1M, pH 6.0], respectively. The eluent from both IMERs was collected in order to determine if any of the DBH was being washed off the columns. The Biorad assay was utilized to measure the amount of non-immobilized enzyme. When the columns were not in use they were washed with sodium acetate buffer at the respective pHs and stored at 4° C.
Pumps 2 and 3 on system 2 and 3 were stopped. […]
The enzymatic activity on the DBH-Glut-P was determined by quantification of the amount of product formed with a given substrate. […] The kinetic parameters were determined using standard Michaelis-Menten approach. […] The rates of reaction (Vmax) were calculated using […]mol/mg/min. Results are expressed as mean±standard error of the mean (SEM). […]

Substrate in series [2]: NCCc1ccc(O)cc1
The series can be described thus: DBH immobilized onto Glut-P stationary phase (DBH-Glut-P, DBH-Glut-P-SP), batch assay. The series is classed as biochemical, bovine. The settings on record: other: DBH-Glut-P (DBH-Glut-P-SP); 37.0 °C. The method, then:
The enzyme was assayed as follows: four different solutions were prepared A, B, C and D (final concentration). (A) 500 μL of enzyme solution (10 μg/ml); B: 275 μL sodium acetate buffer (10 mM, pH 5.5), 50 μL cupric sulphate (5 μM); C: 25 μL catalase (5 μg/ml), 50 μL ascorbic acid (10 mM), 50 μl sodium fumarate (10 mM); D: 50 μl substrate (5 mM). Solution B was added to solution A, the resulting solution was mixed for 1 min. Solution C was added and the resulting solution was mixed for an additional minute. The reaction was started with the addition of the substrate (D), after which the reaction solution was incubated for 5 min at 37° C. in a shaking bath. […]
The packing material was washed three times with sodium acetate buffer (0.1M, pH 6). […] The enzyme solution (8-10 μg in 1 ml sodium acetate buffer] was added to the packing material, the mixture was vortexed for 2 min and then placed on a shaker/rotator for 6 h at ambient temperature. At the end of 6 h, the suspension was centrifuged, the supernatant decanted and the packing material washed three additional times with the buffer. The amount of residual enzyme was determined utilizing the same procedure as that carried out for the enzyme immobilized onto IAM.

B1: DBH-Glut-P IMER (immobilized dopamine beta-hydroxylase) (Bos taurus) (protein)
chain: MQVPSPSVREAASMYGTAVAVFLVILVAALQGSAPAESPFPFHIPLDPEGTLELSWNISYAQETIYFQLLVRELKAGVLFGMSDRGELENADLVVLWTDRDGAYFGDAWSDQKGQVHLDSQQDYQLLRAQRTPEGLYLLFKRPFGTCDPNDYLIEDGTVHLVYGFLEEPLRSLESINTSGLHTGLQRVQLLKPSIPKPALPADTRTMEIRAPDVLIPGQQTTYWCYVTELPDGFPRHHIVMYEPIVTEGNEALVHHMEVFQCAAEFETIPHFSGPCDSKMKPQRLNFCRHVLAAWALGAKAFYYPEEAGLAFGGPGSSRFLRLEVHYHNPLVITGRRDSSGIRLYYTAALRRFDAGIMELGLAYTPVMAIPPQETAFVLTGYCTDKCTQLALPASGIHIFASQLHTHLTGRKVVTVLARDGRETEIVNRDNHYSPHFQEIRMLKKVVSVQPGDVLITSCTYNTEDRRLATVGGFGILEEMCVNYVHYYPQTQLELCKSAVDPGFLHKYFRLVNRFNSEEVCTCPQASVPEQFASVPWNSFNREVLKALYGFAPISMHCNRSSAVRFQGEWNRQPLPEIVSRLEEPTPHCPASQAQSPAGPTVLNISGGKG
notes: purchased
Regarding B1, in series [1], the Km came out at 2760 µM and the Vmax was determined as 0.079 µmol/mg/min.

B2: dopamine beta-hydroxylase immobilized onto Glut-P (DBH-Glut-P) (Bos taurus) (protein)
chain: MQVPSPSVREAASMYGTAVAVFLVILVAALQGSAPAESPFPFHIPLDPEGTLELSWNISYAQETIYFQLLVRELKAGVLFGMSDRGELENADLVVLWTDRDGAYFGDAWSDQKGQVHLDSQQDYQLLRAQRTPEGLYLLFKRPFGTCDPNDYLIEDGTVHLVYGFLEEPLRSLESINTSGLHTGLQRVQLLKPSIPKPALPADTRTMEIRAPDVLIPGQQTTYWCYVTELPDGFPRHHIVMYEPIVTEGNEALVHHMEVFQCAAEFETIPHFSGPCDSKMKPQRLNFCRHVLAAWALGAKAFYYPEEAGLAFGGPGSSRFLRLEVHYHNPLVITGRRDSSGIRLYYTAALRRFDAGIMELGLAYTPVMAIPPQETAFVLTGYCTDKCTQLALPASGIHIFASQLHTHLTGRKVVTVLARDGRETEIVNRDNHYSPHFQEIRMLKKVVSVQPGDVLITSCTYNTEDRRLATVGGFGILEEMCVNYVHYYPQTQLELCKSAVDPGFLHKYFRLVNRFNSEEVCTCPQASVPEQFASVPWNSFNREVLKALYGFAPISMHCNRSSAVRFQGEWNRQPLPEIVSRLEEPTPHCPASQAQSPAGPTVLNISGGKG
notes: purchased
In the case of B2, in series [2], the Michaelis constant (Km) was found to be 1040 µM and the Vmax amounted to 0.112 µmol/mg/min.
